In the data set the test system is Escherichia coli TOP10. Description: shrunken log2 fold change of peptide-encoding DNA abundance (4.5 h post-induction vs induction); higher = less antimicrobial activity (less host growth inhibition). The settings on record: time post-induction: 4.5 h; library: site-saturation at positions 5, 18, 19, 20.
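Also: peptides expressed intracellularly from a pBAD plasmid library in pooled LB shake-flask culture, induced with 0.3% L-arabinose, DNA abundance read by NGS, three biological replicates, DESeq2 with apeglm shrinkage.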

Turning to RRIRLRPPRLPRPRPRPCMRPRP, the “shrunken log2 fold change” value was found to be 0.188.
As to RRIRHRPPRLPRPRPRPRRQPRP, the “shrunken log2 fold change” value was determined as 0.0256.
For RRIRNRPPRLPRPRPRPAPLPRP, the “shrunken log2 fold change” value stood at 0.196.
For RRIRPRPPRLPRPRPRPAAPPRP, the “shrunken log2 fold change” value is 0.467.
With RRIRSRPPRLPRPRPRPIFMPRP, the “shrunken log2 fold change” value is -0.117.
Regarding RRIRTRPPRLPRPRPRPEKQPRP, the “shrunken log2 fold change” value was -0.0379.
With RRIRSRPPRLPRPRPRPECNPRP the figure was 0.218.
With RRIRPRPPRLPRPRPRPRDFPRP the figure was 0.317; with RRIRDRPPRLPRPRPRPTWKPRP, 0.0856; with RRIRTRPPRLPRPRPRPAPTPRP, 0.0808.
For the sequence RRIRVRPPRLPRPRPRPIDFPRP, the “shrunken log2 fold change” value was -0.0311.
With RRIRFRPPRLPRPRPRPPQIPRP the figure was 0.241; with RRIRSRPPRLPRPRPRPHVPPRP, -0.149; with RRIRWRPPRLPRPRPRPQYQPRP, -0.268.
With RRIRTRPPRLPRPRPRPQYAPRP the figure was -0.317.
With RRIRVRPPRLPRPRPRPRNKPRP the figure was -0.136; with RRIRYRPPRLPRPRPRPFAKPRP, -0.623; with RRIRCRPPRLPRPRPRPQLIPRP, 0.229.
With RRIRVRPPRLPRPRPRPAYIPRP, the “shrunken log2 fold change” value was -0.738.
On to RRIRQRPPRLPRPRPRPEHNPRP, for which the “shrunken log2 fold change” value was -0.137.
As for RRIRWRPPRLPRPRPRPDHTPRP, the “shrunken log2 fold change” value was -0.000848.
For the sequence RRIRRRPPRLPRPRPRPWVEPRP, the “shrunken log2 fold change” value turned out to be 0.0269.
As for RRIRSRPPRLPRPRPRPYHEPRP, the “shrunken log2 fold change” value is -1.19.
As to RRIRMRPPRLPRPRPRPACFPRP, the “shrunken log2 fold change” value was 0.421.
On to RRIRVRPPRLPRPRPRPEIGPRP, for which the “shrunken log2 fold change” value stood at 0.0353.
In the case of RRIRMRPPRLPRPRPRPVRTPRP it was 0.673; in that of RRIRWRPPRLPRPRPRPSREPRP, 0.807; in that of RRIRIRPPRLPRPRPRPKCEPRP, 0.07.
In the case of RRIRQRPPRLPRPRPRPFFRPRP it was -0.236.
In the case of RRIRARPPRLPRPRPRPLDKPRP it was 0.332; in that of RRIRHRPPRLPRPRPRPNKPPRP, -0.0637.
Regarding RRIRVRPPRLPRPRPRPQGLPRP, the “shrunken log2 fold change” value is -0.29.
In the case of RRIRQRPPRLPRPRPRPIPCPRP it was -0.244.
RRIRIRPPRLPRPRPRPTSHPRP: the “shrunken log2 fold change” value was -0.19.
With RRIRMRPPRLPRPRPRPADMPRP the figure was 0.728.
Regarding RRIRHRPPRLPRPRPRPRLFPRP, the “shrunken log2 fold change” value was found to be 0.164.
In the case of RRIRMRPPRLPRPRPRPTFEPRP it was -0.0436.
For RRIRDRPPRLPRPRPRPKKDPRP, the “shrunken log2 fold change” value stood at 0.199.
For RRIRSRPPRLPRPRPRPWIIPRP, the “shrunken log2 fold change” value is -0.159.
With RRIRLRPPRLPRPRPRPKMYPRP the figure was -0.14.
On to RRIRRRPPRLPRPRPRPIGRPRP, for which the “shrunken log2 fold change” value came out at 0.00106.
For RRIRPRPPRLPRPRPRPAIFPRP, the “shrunken log2 fold change” value was -0.0302.
With RRIRHRPPRLPRPRPRPFDNPRP the figure was -0.0137.
For RRIRQRPPRLPRPRPRPARPPRP, the “shrunken log2 fold change” value came to 0.516.
In the case of RRIRRRPPRLPRPRPRPGCLPRP it was 0.702.
Consider RRIRGRPPRLPRPRPRPQPDPRP, for which the “shrunken log2 fold change” value amounted to 0.821.
With RRIRGRPPRLPRPRPRPTHSPRP the figure was 0.587.
Take RRIRHRPPRLPRPRPRPPYAPRP: the “shrunken log2 fold change” value is -0.00375.
In the case of RRIRFRPPRLPRPRPRPAVCPRP it was 0.925; in that of RRIRNRPPRLPRPRPRPAFPPRP, -0.138.
RRIRHRPPRLPRPRPRPVAQPRP: the “shrunken log2 fold change” value was 0.0207.
As for RRIRLRPPRLPRPRPRPCFTPRP, the “shrunken log2 fold change” value is -0.497.
With RRIRARPPRLPRPRPRPWTEPRP, the “shrunken log2 fold change” value was -0.181.
As to RRIRGRPPRLPRPRPRPQNIPRP, the “shrunken log2 fold change” value was -0.603.
Take RRIRRRPPRLPRPRPRPWCTPRP: the “shrunken log2 fold change” value is -0.0123.
As for RRIRCRPPRLPRPRPRPKVTPRP, the “shrunken log2 fold change” value was -0.455.
With RRIRRRPPRLPRPRPRPFVLPRP the figure was -0.0834; with RRIRQRPPRLPRPRPRPCRHPRP, -0.000946; with RRIRPRPPRLPRPRPRPDIHPRP, -0.458.
With RRIRLRPPRLPRPRPRPNFYPRP the figure was -0.141.
As for RRIRSRPPRLPRPRPRPWMGPRP, the “shrunken log2 fold change” value is -0.238.
With RRIRCRPPRLPRPRPRPHEDPRP the figure was -0.157.
In the case of RRIRFRPPRLPRPRPRPYWSPRP it was -0.428.
With RRIRVRPPRLPRPRPRPAHQPRP the figure was 0.317; with RRIRRRPPRLPRPRPRPLHGPRP, 0.233; with RRIRQRPPRLPRPRPRPSVPPRP, -0.0859.
Regarding RRIRHRPPRLPRPRPRPDVFPRP, the “shrunken log2 fold change” value was -0.37.
For RRIRHRPPRLPRPRPRPLFSPRP, the “shrunken log2 fold change” value was -0.888.
In the case of RRIRIRPPRLPRPRPRPGIAPRP it was -0.184; in that of RRIRNRPPRLPRPRPRPEKTPRP, -0.0226.
As for RRIRRRPPRLPRPRPRPTNQPRP, the “shrunken log2 fold change” value is 0.111.
With RRIRFRPPRLPRPRPRPNCCPRP the figure was 0.0101.
With RRIRARPPRLPRPRPRPWERPRP the figure was 0.12.
In the case of RRIRSRPPRLPRPRPRPVMAPRP it was 0.304; in that of RRIRYRPPRLPRPRPRPVKFPRP, -0.133.
For the sequence RRIRPRPPRLPRPRPRPYMCPRP, the “shrunken log2 fold change” value was -0.714.
Turning to RRIRVRPPRLPRPRPRPHGHPRP, the “shrunken log2 fold change” value is -0.0491.
RRIRSRPPRLPRPRPRPSDQPRP: the “shrunken log2 fold change” value is -0.127.
RRIRFRPPRLPRPRPRPCGFPRP: the “shrunken log2 fold change” value was 0.0163.
In the case of RRIRVRPPRLPRPRPRPDTCPRP it was -0.135; in that of RRIRCRPPRLPRPRPRPELAPRP, 0.403.
As to RRIRSRPPRLPRPRPRPIEQPRP, the “shrunken log2 fold change” value was -0.0141.
With RRIRLRPPRLPRPRPRPVCFPRP the figure was -0.059; with RRIRARPPRLPRPRPRPFWIPRP, -0.0619.
With RRIRPRPPRLPRPRPRPMATPRP the figure was 0.323; with RRIRNRPPRLPRPRPRPCPFPRP, -0.208; with RRIRSRPPRLPRPRPRPKMMPRP, -0.214.
With RRIRLRPPRLPRPRPRPSWVPRP the figure was -0.141; with RRIRDRPPRLPRPRPRPILPPRP, 0.0106.
For RRIRHRPPRLPRPRPRPLWAPRP, the “shrunken log2 fold change” value turned out to be 0.222.
With RRIRWRPPRLPRPRPRPYMNPRP the figure was -1.44.

Source of the values: the supplement of paper PMC9112550, “Optimization of the antimicrobial peptide Bac7 by deep mutational scanning” (BMC Biology, 2022).
